The results in this text go back to paper doi:10.1101/2020.03.26.009662.

The target of this assay is ForT, recombinant wild type. The assay can be described thus: SEC-MALS.

For orientation: stoichiometry N means the number of molecules, sites or subunits per partner or assembly. Turning to ForT, recombinant wild type (enzyme), the stoichiometry N stood at 2.
